# Measured values: patent US20220073598A1 (KYMAB, published 2022)
# T1: recombinant human BMP6 (Peprotech 120-06) (human, UniProt P22004 397-513)
# T1 construct: Biotinylated and immobilised for SPR; also called hBMP6; Bone Morphogenetic Protein 6
# T1 sequence: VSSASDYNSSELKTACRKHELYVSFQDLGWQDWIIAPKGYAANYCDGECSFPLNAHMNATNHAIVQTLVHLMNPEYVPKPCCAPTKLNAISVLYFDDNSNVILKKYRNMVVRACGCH
# T2: human BMP6 (Peprotech), reduced monomer on SDS-PAGE (human, UniProt P22004 397-513)
# T2 construct: also called reduced BMP6 monomers; 18 kDa monomer
# T2 sequence: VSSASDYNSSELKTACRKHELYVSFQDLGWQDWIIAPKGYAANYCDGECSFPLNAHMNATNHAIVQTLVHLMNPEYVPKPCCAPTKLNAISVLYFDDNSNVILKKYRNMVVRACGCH
# Columns and labels:
# [1] = target: T1, recombinant human BMP6 (Peprotech …); experiment: HTRF competition: unlabelled antibody titrated (11 points, top 3 µM) against labelled CL-58838 (10 nM) for binding to labelled human BMP6 (32 nM)
# [2] = target: T2, human BMP6 (Peprotech), reduced monomer …; experiment: Western blot after reducing SDS-PAGE
# Protocol: (§1) 2 μg/lane purified human BMP6 (Peprotech) separated by SDS-PAGE and stained with Coomassie blue (A) under reducing (R) and non-reducing (NR) conditions and Western blots from such gels blotted onto membranes and then probed with purified human anti-BMP6 antibodies as labelled.
# (§2) Since BMP6 is a disulphide linked dimer the reducing condition should create monomers on the gel instead of dimers on the non-reduced gel.
# [3] = target: T1, recombinant human BMP6 (Peprotech …); experiment: Western blot after non-reducing SDS-PAGE
# Protocol: as §1, §2
Binder,binding result [1],binding result [2],binding result [3]
"CL-58756 (antibody, human IgG4 S228P, kappa, V domains shown) VH: QVQLVESGGGLVKPGGSLRLSCAASGFTFSDYYMSWIRQAPGKGLEWVSYISISGSTIYYADSVKGRFTISRDNAKNSLYLQMNSLRAEDTAVYYCARRSSGWYDYWGQGTLVTVSS VL: EIVLTQSPGTLSLSPGERATLSCRASQSVSSNYLAWYQQKPGQAPRLLIYGASIRATGIPDRFSGSGSGTDFTLTISRLEPEDFAVYCCHQYGSSPPTFGQGTKVEIKR",binds,–,–
"CL-58713 (antibody, human IgG4 S228P, kappa, V domains shown) VH: QVQLVESGGGLVKPGGSLRLSCAASGFTFSDYYMSWIRQAPGKGLEWVSYISISGITIYYADSVKGRFTISRDNARNSLYLQMNSLRAEDTAVYYCARRSSGWYDYWGQGTLVTVSS VL: EIVLTQSPGTLSLSPGERATLSCRASQSVSYNYLAWYQQKPGQAPRLLIYGASIRATGIPDRFSGSGSGTDFTLTISRLEPEDFAVYCCHQYGSSPPTFGQGTKVEIKR",binds,–,–
"CL-58722 (antibody, human IgG4 S228P, kappa, V domains shown) VH: QVQLVESGGGLVKPGGSLRLSCAASGFTFSDYYMSWIRQAPGKGLEWVSYISISGSTIYYADSVKGRFTISRDNAKNSLFLQMNSLRAEDTAVYYCARRSSGWYDYWGQGTLVTVSS VL: EIVLTQSPGTLSLSPGERATLSCRASQSVSSNYLAWYQQKPGQAPRLLIYGASIRATGIPDRFSGSGSGTDFTLTISRLEPEDFAVYSCHQYGSSPPTFGQGTKVEIKR",binds,–,–
"Antibody B (antibody, human IgG1, lambda, V domains shown, also called anti-BMP6 Antibody B) VH: QVQLVESGGGLVKPGGSLRLSCAASGFTFSSYVVHWVRQAPGKGLEWVGRIRLETHGYAAEYAASVKGRFTISRDDSKNTLYLQMNSLKTEDTAVYYCARVERSKSGFDNWGQGTLVTVSS VL: QSVLTQPPSVSGAPGQRVTISCTGSSSNIGAGYSVHWYQQLPGTAPKLLIYGQSERPSGVPDRFSGSKSGTSASLAITGLQAEDEADYYCQSWDSSQTLVVFGGGTKLTVLG",–,binds,binds
